Assay results from the nanobody polyreactivity screen of Harvey et al. (2022).

test: yeast display, Sf9 membrane polyspecificity reagent, FACS + sequencing; frameworks hold sequencing errors
In short: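 Galactose-induced (36–48 hours) yeast carrying a synthetic nanobody display library were exposed to 10% biotinylated, detergent-solubilized Sf9 membrane reagent at 4 °C for 1 hour. FACS followed streptavidin microbead enrichment, using low and high (top ~1%) gates for expression (anti-HA) and reagent binding (streptavidin). Colony PCR, MiSeq 2 × 250 sequencing and CDR-length filtering followed. Labels for polyreactivity reflect the gate of origin.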

Row | Sequence | polyreactivity (PSR sort gate)
1 | QDQLVESGGGLVQAGGSLRLSCAASGSILRAYAMGWYRQAPGKERELVADIDWSAGITHYADSVKGRFTISRDNAMNPVYLQMNSLKPEDTAVYYCSARYYWYDYIVYYGDYWGQGTLVTVSS | high polyreactivity
2 | QDQLVESGGGLVQAGGSLRLSCAASGSISYYAMGWYRQAPGKERELVAAISSSGGSTYYADSVKGRFTISRDNAKNTVYLQMNSLKPEDTAVYYCAARYYGFPSKYDYWGQGTQVTVSS | high polyreactivity
3 | QDQLVESGGGLVQAGGSLRLSCAASGSITAPYAMGWYRQAPGKERELVAAISYSGGSTNYADSVKGRFTISRDNAKNTVYLQMNSRKPEATAVYYCAARGYSGYRTSPLARYDYWGKGTQVTVSS | high polyreactivity
4 | QDQLVESGGGLVQAGGSLRLSCAASGSSFLVYAMGWYRQATGKEREFVAAIRGGGSTNYADSVKGRFTISRDNAMNTVYLQMNSLKPEDTAVYYCAAYLLYTPSMDYWGQGTQVTVSS | low polyreactivity
5 | QDQLVESGGGLVQAGGSLRLSCAASGSTFAYYAMGWYRQAPGKERELVAAITIDGRTSYADSVKGRFTISRDNAKNTVYLQMISLNQVDTAVYYCARGYFPYGYPWRWGYDRFDYWGQGTQVTVSS | low polyreactivity
6 | QDQLVESGGGLVQAGGSLRLSCAASGSTFGYYAMGWYRQAPRKERELVAAISWRGGSTSYADSVKGRFTISRDNAKNTVYLQMNSLKPEDTAVYYCAAPRGTLTSWAGNYWGQGTQVTVSS | high polyreactivity
7 | QDQLVESGGGLVQAGGSLRLSCAASGSTFKRYAMGWYSQAPGKVRELVAAISRRGGSTYYADSVKGRFTISRDNAKNTVYLQMNSLKPEDTAVYYCAARIASHHYYYWGQGTQVTVSS | high polyreactivity
8 | QDQLVESGGGLVQAGGSLRLSCAASGSTFQENAMGWYRQAPGKEREFVAAISGSGGSTYYADSVKGRFTISRDNAKNSVYLQMNSLKPEDTAVYYCAAYVTGYVNTVGSGWLVWGVDFWGQGTQVTVSS | low polyreactivity
9 | QDQLVESGGGLVQAGGSLRLSCAASGSTFRRYAIGWYRQAPGKERELVAAITSGGRTNYADSVKGRFTISRDNAKNTVYLQMNSLKPEDTAVYYCNAKAYKLGQSYWGYDYWGQGTQVTVSS | high polyreactivity
10 | QDQLVESGGGLVQAGGSLRLSCAASGSTFTGYTMGWYRQAPGKERELVAAITYRGGSTYYADSVKGRFTISRDNAKNTVYLQMNSLKPEDTAVYYCAAVPEYYEYTPYDYWGQGTQVTVSS | low polyreactivity
11 | QDQLVESGGGLVQAGGSLRLSCAASRITIYRYVMGWYRQAPGKERELVAAITSAGSTNYADSVKGRFTISRDHAKTTVYLQMNSLKPEDTAVYYCNADYKGYVRPYVRIRYGYWGQGTQVTVSS | low polyreactivity
12 | QDQLVESGGGLVQAGGSLRLSCAASVITFVRNAKGWYRQAPGKERELVAAMSGRGGITYYADSVKGRFTISRDNAKNTVYLQMNSLKPEDTAVYYCAASSAGSSYNYWGQGTQVTVSS | high polyreactivity
13 | QDQLVESGGGLVQAGGSLRLSCAASVSTFRVYAMGWYRQAPGKERELVAAISSSGGITYYADSVKGRFTLSRDNAKNTVYLQMNSLKPEATAVYYCAKGTVIHVLYDYWGEGTQVTVSS | low polyreactivity
14 | QDQLVESGGGLVQAGGSLRLSCAATASIFVTYAMGWYRQAPGQERELVAAINYSGGSTYYADSVKGRFTISRDNAKNTFYLQMNSLKPEDTAVNYCAADERVDQGWIRMDYWGQGTQVTVSS | low polyreactivity
15 | QDQLVESGGGLVQAGGSLRLSCAATGFIIGWNTMGWYRPAPRKEREVVAAISSGGGSTYYADSVKGRFTISRDNAKNNVYLQMNSLKPEDTAVFYCNAVSFKHVYHTDTYGVNEFVYWGEGTQVTVSS | high polyreactivity
16 | QDQLVESGGGLVQAGGSLRLSCAATGFTFYSYAMGWYRQAPGKERELVAGISRSGGSTYYADSVKGRFTISRDNGKNTVYLQMKSLKPVDTAVYYCNVGLRKKIQNSKYDYWGQGTQVTVSS | high polyreactivity
17 | QDQLVESGGGLVQAGGSLRLSCAATGSTFPSNAMGWYRQAPGKEREFVATIRFSGGSTYYADSVKGRFTISRVNAKNTVDLQMNSLKPEDTAVYYCAARFYSSAYWYDYWGQGTQVTVSS | high polyreactivity
18 | QDQLVESGGGLVQAGGSLRLSCAATGSTYYGYVMGWYRKAPGKETELVAAINLRGDRTYYADSVKGRFTISRDNAKNTVYLQMNSLKPEESSVYYCAARVMFYNSIKRYSWGQGTQVTGSS | high polyreactivity
19 | QDQLVESGGGLVQAGGSLRLSCAAYGSTSYTNAMGWYRQAPGKERELVAGITRSGDSTYYADSVKGRFTISRDTAKNTVYLQMKSLKPEDTAVYYCAADIGDYWLGYYTGYYYLGQGTQVTVSS | high polyreactivity
20 | QDQLVESGGGLVQAGGSLRLSCADSGITFSVYAMGWYRQAPGKERELVAAISWNGGRTYYADSVKGRFTISRDNAKNTVYLQMNSLKPEDTAVYYCAAQPWIFSSRLVWTRGYGYWGQGTQVTVSS | high polyreactivity

Row | Sequence | polyreactivity (PSR sort gate)
21 | QDQLVESGGGLVQAGGSLRLSCADSGSNFKYNAMGWYRPAPGKERELVAAISTRGSTTNYADSVKGRFTISRDNAKNTVYLQMNSLKPEDTAVYDCNKYANRRDRTRGADYDYWGQGTQVTVSS | high polyreactivity
22 | QDQLVESGGGLVQAGGSLRLSCASSGSIFSYNAMGWYRQAPGKEMELVAAISRGGSTYYADSVKGRFTISRDNAKNTVYLQMNSLKPDDTAVYYCAAYVYQLSYPAFEEGYWGQGTQVTVSS | low polyreactivity
23 | QDQLVESGGGLVQAGGSLRLSCASSGSTFYYKAMGWSRQEPGKERELVARISRSGGSTYADSVKGRFTISRDNAKYTVYLQMNSLKPEDTAVYYCNADAYGTPEFTSYAVRYDYWGQGTQVTVSS | low polyreactivity
24 | QDQLVESGGGLVQAGGSLRLSCASYGSTFGANAMGWYRQAHGKARELVATISSGGRTYYADSVKGRFTISRDNAKITVYLQMNSLKPEDTAVYYCNAGADYTYVYISVYVLYDYLGQGTQVTVSS | low polyreactivity
25 | QDQLVESGGGLVQAGGSLRLSCDASGSIFKSYAMGWFRQAPGKERELVASITYGGGRTYYADSVKGRFTISRDNAKNTVYLQMNSLKPEDTAVYYCATRLFGRSGMYYLRYDYWGQGTQVTVSS | high polyreactivity
26 | QDQLVESGGGLVQAGGSLRLSCDASGSIFSPYAMGWYRQAPGKEREFVAAITYSGGRTYYADSVKGRFTISRDNPKNTVYFQMNSLKPEDTAVYYCAATYSSYDHYWFVYWGQATQVTVSS | low polyreactivity
27 | QDQLVESGGGLVQAGGSLRLSFAASGRTFDRNTMGWYRQAPGKERELVAAISSSGGSTYYADSVKGRFTISRDNAKNTVYLEMNSLIPEDTAVYYCAVLSRQYFRYGYDYCGQGTQVTVSS | high polyreactivity
28 | QDQLVESGGGLVQAGGSLRLSGAASGRTFLGYAMGCYRQAPGKERALVAAITWRGGITYYADSVKGRFTISRDNAKNTVYLQMNSLKPEDTAVYYCAARKVGNRYTYYWGQGTQVTVSS | high polyreactivity
29 | QDQLVESGGGLVQAGGSLRLSSAASGSTFDSNAMAWYRQAPGKERELVAAISSSGGRTSYADSVKGRFTISRDNAKNTVYLQMNSLKPEDTAVYYCADRFKSVDYVQYYYWGQGTQVTVSS | low polyreactivity
30 | QDQLVESGGGLVQAGGSLRLTCAASGRTFTHYAMGWYRQAPVKERELVAAISRSGGTTYYADSVKGRFTISLDNAKNTVYLQMNSRKPEDTAVYYCAARWWYRYNYDYWGQGTHVTVSS | high polyreactivity
31 | QDQLVESGGGLVQAGGSLRLTCAASGSIFGWYAMGWYRQAPGKEMELFAAITNSGGSTYYADSVKGRFTISRDNAKKTVYIQMNSLKPEETAVYYCAAESWIRRWYGGGKKYDYWGQGTQVTVSS | high polyreactivity
32 | QDQLVESGGGLVQAGGSLRLTCAASGSTFTTNVMGWYRQAPGKERDLVAAISWSSGSTYYADSVKGRFTISRDNAKNTVYLQMKSLKPEDTAVYYCAARLVIFYPYSRYYYWGQGTHVTVSS | high polyreactivity
33 | QDQLVESGGGLVQAGGSLSLSCAASGRIFYWYVIGWYRQAPGKEREYVASISWSGGSTYYADSVKGRFTISRDNAKNTVYLQMNSLKPEDTAVYYCNAGSVYTVSLTGHPYDYWGQGTQVTVSS | low polyreactivity
34 | QDQLVESGGGLVQAGGSLSLSCAASGRIYRYYAMGWSRQAPGKERELVADISSGDSTYYADSVKGRFTMSRDNAKNTVYLQMNSLKPEDTAVYNCNADVYSWVSGKEGDYWGQGTQVTVSS | low polyreactivity
35 | QDQLVESGGGLVQAGGTLRLSCAASGRTFYLYAMAWYRQAPGKERELVAAISSGASTYYADSVKGSFTISRDIAKNTVYLQMNSLKPDDTAVYYCAAEFCPQWSGYEYWGQGTLVTVSS | high polyreactivity
36 | QDQLVESGGGLVQAGRSLRLSCAASGRIIKLYAMGWYRQAPGKERELVAAISKSGGNTYADSVKGRFTISRDNAKNTVYLQMNSLKPEDTAVYYCAASVQSTSDPFDYWGQGTQVTVSS | low polyreactivity
37 | QDQLVESGGGLVQAGRSLRLSCAASGYTFRFNAMGWYRQAPGKEREFVAAIDFGGAGTYYADSVKGRFTISRDNAKNTVSLQMNSLKPEDTAVYYCNARDGVTTEFDYWGQGTQVNVSS | low polyreactivity
38 | QDQLVESGGGLVQAGVSLRLSCAASGSIIGSYAMGWYREAPAKERELVAAITRSGSRTYYADSVKGRFTISRDNAKNTVYLQINSLKPEDTAVYYCATGYPGGFDYWGLGTQVTVSS | high polyreactivity
39 | QDQLVESGGGLVQARGSLRLSCAASGRIIKRYVMGWYRQAPGTERELVAAITSGGTNYADSVKGRFTISRDNAKNTVYLQMNSRKPEDTAVYSCAARYLYRAGSNYWGQGTQVTVSS | high polyreactivity
40 | QDQLVESGGGLVQARGSLRLSCASSGSICDHYVMGWYRQAPGKERELVAAITSGDRTNYADSVKGRFTISRDKAKNTVYLQMNSLTPEDTEGYYCNADYQSYFYYTTWYYDYDYWGKGTQVTVSS | low polyreactivity
